Paper PMC3149027, “Structural and functional basis for RNA cleavage by Ire1”

How the values were obtained:
[1] = molecular target: Ire1KR32 (wild type) (yeast)
Ire1KR32 = molecular target: T1, Ire1KR32 (Saccharomyces cerevisiae? ("yeast"), UniProt P32361 641-1115); assay: competition (inhibition of 32P-HP21 cleavage); apparent Ki; 2 mM Mg2+, 2 mM ADP, 3 uM Ire1KR32; 20 mM HEPES pH 7.4, 70 mM NaCl, 5% glycerol, 2 mM Mg(CH3COO)2, 2 mM ADP, 4 mM DTT, 30 C; settings: protein: recombinant; tags: GST removed with Prescission protease; label: none; single strand
T1 sequence: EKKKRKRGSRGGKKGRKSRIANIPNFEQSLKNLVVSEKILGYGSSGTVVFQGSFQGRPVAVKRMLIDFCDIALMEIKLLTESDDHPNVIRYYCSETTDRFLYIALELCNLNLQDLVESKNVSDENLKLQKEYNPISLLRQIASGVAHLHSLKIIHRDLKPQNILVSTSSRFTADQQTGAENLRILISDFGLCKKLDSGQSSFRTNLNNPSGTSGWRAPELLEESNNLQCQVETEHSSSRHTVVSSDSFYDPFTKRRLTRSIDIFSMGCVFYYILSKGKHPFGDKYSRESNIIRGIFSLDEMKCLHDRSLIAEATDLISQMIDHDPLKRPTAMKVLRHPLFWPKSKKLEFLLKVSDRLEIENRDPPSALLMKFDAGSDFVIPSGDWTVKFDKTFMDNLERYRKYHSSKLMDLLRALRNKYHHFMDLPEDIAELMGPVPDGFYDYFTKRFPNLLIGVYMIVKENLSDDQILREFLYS

Question: How did the RNase activity (single-turnover cleavage of 32P-HP21) of 1.5 μM wild-type Ire1KR32 titrated with 0.1-15 μM Ire1KR32(H1061N); in trans activation, inhibition at excessive H1061N [1] turn out when Ire1KR32(H1061N) (domain or fragment) was run?
Answer: 10 fold

B1: dCdCdGdCdAdG (2'-deoxy-CCGCAG) (ssDNA)
DNA: CCGCAG
modifications: 2'-deoxy throughout
Question: Which Ki (Ire1KR32) does the source give for B1 here?
Answer: 200 ± 50 µM
